According to article PMC9482650, “Quantitative fragmentomics allow affinity mapping of interactomes” (Nature Communications, 2022):
Substitutions are numbered along the chain they refer to.

B1: VAC14, Q08AM6 (peptide)
chain: GDHLDRRVVL
B2: NDE1, Q9NXR1;Q9NXR1-2 (peptide)
chain: KSTTRSSSSC
B3: EZH1, Q92800 (peptide)
chain: VGIERETDVL
B4: LSM14A, Q8ND56;Q8ND56-2 (peptide)
chain: EYRKDNKVAA

molecular target: AHNAK1, Q09666; assay: holdup assay; set-up: key: below the threshold = too weak to quantify, mostly under pKd 3.1 to 4; details: plain residues with an end cap or a label only (N-terminal biotin on a linker: ado-ado)
Sequence (Q09666 4-100): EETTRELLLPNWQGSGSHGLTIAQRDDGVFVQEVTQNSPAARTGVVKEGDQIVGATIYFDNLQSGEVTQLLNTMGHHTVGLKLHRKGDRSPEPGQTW

Binder	pKd
B1	below the threshold
B2	below the threshold
B3	below the threshold
B4	below the threshold

molecular target: T1, DFNB31_3, Q9P202; assay: holdup assay; set-up: key: below the threshold = too weak to quantify, mostly under pKd 3.1 to 4; details: plain residues with an end cap or a label only (N-terminal biotin on a linker: ado-ado)
T1 sequence (Q9P202 811-907, limits assumed, looked up): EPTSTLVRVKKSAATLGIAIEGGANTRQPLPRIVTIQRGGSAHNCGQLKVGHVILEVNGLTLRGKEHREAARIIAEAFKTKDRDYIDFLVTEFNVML

Binder	pKd
B1	3.82
B3	below the threshold
B4	below the threshold

molecular target: FRMPD2_2, Q68DX3; assay: holdup assay; set-up: key: below the threshold = too weak to quantify, mostly under pKd 3.1 to 4; details: plain residues with an end cap or a label only (N-terminal biotin on a linker: ado-ado)
Sequence (Q68DX3 944-1038): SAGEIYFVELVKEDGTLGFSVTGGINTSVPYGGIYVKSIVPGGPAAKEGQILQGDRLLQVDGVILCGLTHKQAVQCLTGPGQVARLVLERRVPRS

Binder	pKd
B1	below the threshold
B2	below the threshold
B3	below the threshold
B4	below the threshold

molecular target: FRMPD3, Q5JV73; assay: holdup assay; set-up: key: below the threshold = too weak to quantify, mostly under pKd 3.1 to 4; details: plain residues with an end cap or a label only (N-terminal biotin on a linker: ado-ado)
Sequence (Q5JV73 12-100): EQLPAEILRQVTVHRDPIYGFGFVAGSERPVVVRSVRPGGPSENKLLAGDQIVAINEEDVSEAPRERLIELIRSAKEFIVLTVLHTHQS

Binder	pKd
B1	below the threshold
B2	below the threshold
B3	below the threshold
B4	below the threshold

molecular target: GORASP2, Q9H8Y8; assay: holdup assay; set-up: key: below the threshold = too weak to quantify, mostly under pKd 3.1 to 4; details: plain residues with an end cap or a label only (N-terminal biotin on a linker: ado-ado)

Binder	pKd
B1	3.87
B2	below the threshold
B3	below the threshold

molecular target: GRID2IP_1, A4D2P6; assay: holdup assay; set-up: key: below the threshold = too weak to quantify, mostly under pKd 3.1 to 4; details: plain residues with an end cap or a label only (N-terminal biotin on a linker: ado-ado)
Sequence (A4D2P6 1-87): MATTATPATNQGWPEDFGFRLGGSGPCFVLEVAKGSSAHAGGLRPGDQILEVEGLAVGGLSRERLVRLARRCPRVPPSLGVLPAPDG

Binder	pKd
B1	below the threshold
B2	below the threshold
B3	below the threshold
B4	below the threshold

molecular target: T2, GRIP1_4, Q9Y3R0; assay: holdup assay; set-up: key: below the threshold = too weak to quantify, mostly under pKd 3.1 to 4; details: plain residues with an end cap or a label only (N-terminal biotin on a linker: ado-ado)
T2 sequence (Q9Y3R0 467-571, limits assumed, looked up): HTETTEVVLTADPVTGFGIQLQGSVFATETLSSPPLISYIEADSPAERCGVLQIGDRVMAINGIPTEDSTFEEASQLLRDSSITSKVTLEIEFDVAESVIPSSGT

Binder	pKd
B1	below the threshold
B2	below the threshold
B3	below the threshold
B4	below the threshold

molecular target: T3, GRIP1_7, Q9Y3R0; assay: holdup assay; set-up: key: below the threshold = too weak to quantify, mostly under pKd 3.1 to 4; details: plain residues with an end cap or a label only (N-terminal biotin on a linker: ado-ado)
T3 sequence (Q9Y3R0 999-1096, limits assumed, looked up): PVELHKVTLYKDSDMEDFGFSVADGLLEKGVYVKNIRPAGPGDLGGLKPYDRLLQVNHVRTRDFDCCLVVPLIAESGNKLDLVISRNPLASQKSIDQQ

Binder	pKd
B1	below the threshold
B2	below the threshold
B3	below the threshold
B4	below the threshold

molecular target: Inadl_5, Q8NI35; assay: holdup assay; set-up: key: below the threshold = too weak to quantify, mostly under pKd 3.1 to 4; details: plain residues with an end cap or a label only (N-terminal biotin on a linker: ado-ado)
Sequence (Q8NI35 673-780): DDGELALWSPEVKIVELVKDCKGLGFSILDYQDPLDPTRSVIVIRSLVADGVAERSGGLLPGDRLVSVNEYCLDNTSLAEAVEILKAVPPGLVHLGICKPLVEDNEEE

Binder	pKd
B1	3.48
B2	below the threshold
B3	below the threshold
B4	below the threshold

molecular target: T4, LIN7A, O14910; assay: holdup assay; set-up: key: below the threshold = too weak to quantify, mostly under pKd 3.1 to 4; details: plain residues with an end cap or a label only (N-terminal biotin on a linker: ado-ado)
T4 sequence (O14910 103-200, limits assumed, looked up): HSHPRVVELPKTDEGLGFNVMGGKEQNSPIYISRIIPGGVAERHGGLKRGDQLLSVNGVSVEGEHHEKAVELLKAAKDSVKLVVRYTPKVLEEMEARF

Binder	pKd
B1	below the threshold
B2	below the threshold
B4	below the threshold

molecular target: T5, LIN7C, Q9NUP9; assay: holdup assay; set-up: key: below the threshold = too weak to quantify, mostly under pKd 3.1 to 4; details: plain residues with an end cap or a label only (N-terminal biotin on a linker: ado-ado)
T5 sequence (Q9NUP9 88-185, limits assumed, looked up): T4 sequence (O14910 103-200, limits assumed, looked up) with D13E, V20I, V40I, E42D, K77Q, D78G, S79K, A96S

Binder	pKd
B1	4.04
B3	below the threshold
B4	below the threshold

molecular target: LNX1_3, Q8TBB1; assay: holdup assay; set-up: key: below the threshold = too weak to quantify, mostly under pKd 3.1 to 4; details: plain residues with an end cap or a label only (N-terminal biotin on a linker: ado-ado)
Sequence (Q8TBB1 500-596): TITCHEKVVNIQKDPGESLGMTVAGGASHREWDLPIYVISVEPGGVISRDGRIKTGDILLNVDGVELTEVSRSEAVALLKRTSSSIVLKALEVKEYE

Binder	pKd
B1	below the threshold
B2	below the threshold
B3	below the threshold
B4	below the threshold

molecular target: MAGI2_5, Q86UL8; assay: holdup assay; set-up: key: below the threshold = too weak to quantify, mostly under pKd 3.1 to 4; details: plain residues with an end cap or a label only (N-terminal biotin on a linker: ado-ado)
Sequence (Q86UL8 915-1017): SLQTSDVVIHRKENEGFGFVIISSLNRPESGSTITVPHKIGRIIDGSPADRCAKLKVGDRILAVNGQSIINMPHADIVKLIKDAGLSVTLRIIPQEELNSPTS

Binder	pKd
B1	below the threshold
B2	below the threshold
B3	below the threshold
B4	below the threshold

molecular target: MAST2, Q6P0Q8; assay: holdup assay; set-up: key: below the threshold = too weak to quantify, mostly under pKd 3.1 to 4; details: plain residues with an end cap or a label only (N-terminal biotin on a linker: ado-ado)
Sequence (Q6P0Q8 1099-1202): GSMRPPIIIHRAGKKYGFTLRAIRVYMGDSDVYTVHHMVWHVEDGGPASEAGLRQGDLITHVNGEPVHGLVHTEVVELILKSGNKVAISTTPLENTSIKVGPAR

Binder	pKd
B1	4.1
B2	4.06
B3	3.88
B4	below the threshold

molecular target: T6, MPDZ_5, O75970; assay: holdup assay; set-up: key: below the threshold = too weak to quantify, mostly under pKd 3.1 to 4; details: plain residues with an end cap or a label only (N-terminal biotin on a linker: ado-ado)
T6 sequence (O75970 695-796, limits assumed, looked up): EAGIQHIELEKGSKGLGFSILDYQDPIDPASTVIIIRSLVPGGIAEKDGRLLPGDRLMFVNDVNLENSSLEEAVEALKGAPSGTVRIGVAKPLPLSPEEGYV

Binder	pKd
B1	below the threshold
B2	below the threshold
B3	below the threshold
B4	below the threshold

molecular target: T7, NHERF3_3, Q5T2W1; assay: holdup assay; set-up: key: below the threshold = too weak to quantify, mostly under pKd 3.1 to 4; details: plain residues with an end cap or a label only (N-terminal biotin on a linker: ado-ado)
T7 sequence (Q5T2W1 238-333, limits assumed, looked up): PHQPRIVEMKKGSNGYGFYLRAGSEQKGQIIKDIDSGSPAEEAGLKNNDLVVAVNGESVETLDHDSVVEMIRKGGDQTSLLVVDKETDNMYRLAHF

Binder	pKd
B1	below the threshold
B2	below the threshold
B3	below the threshold
B4	below the threshold

molecular target: T8, PDZD2_2, O15018; assay: holdup assay; set-up: key: below the threshold = too weak to quantify, mostly under pKd 3.1 to 4; details: plain residues with an end cap or a label only (N-terminal biotin on a linker: ado-ado)
T8 sequence (O15018 329-429, limits assumed, looked up): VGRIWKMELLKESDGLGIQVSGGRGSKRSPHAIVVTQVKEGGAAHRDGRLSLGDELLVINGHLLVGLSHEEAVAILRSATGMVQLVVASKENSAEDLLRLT

Binder	pKd
B1	below the threshold
B2	4.09
B3	below the threshold
B4	below the threshold

molecular target: PICK1, Q9NRD5; assay: holdup assay; set-up: key: below the threshold = too weak to quantify, mostly under pKd 3.1 to 4; details: plain residues with an end cap or a label only (N-terminal biotin on a linker: ado-ado)
Sequence (Q9NRD5 17-115): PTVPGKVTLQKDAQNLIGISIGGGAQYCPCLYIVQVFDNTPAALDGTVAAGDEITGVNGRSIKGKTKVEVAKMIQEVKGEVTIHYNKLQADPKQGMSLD

Binder	pKd
B1	below the threshold
B2	below the threshold
B3	4.09
B4	below the threshold

molecular target: T9, PTPN13_1, Q12923; assay: holdup assay; set-up: key: below the threshold = too weak to quantify, mostly under pKd 3.1 to 4; details: plain residues with an end cap or a label only (N-terminal biotin on a linker: ado-ado)
T9 sequence (Q12923 1088-1188, limits assumed, looked up): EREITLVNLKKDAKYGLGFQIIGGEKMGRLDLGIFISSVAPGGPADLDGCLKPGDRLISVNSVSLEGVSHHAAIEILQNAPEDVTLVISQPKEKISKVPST

Binder	pKd
B1	3.7
B2	below the threshold
B3	below the threshold
B4	below the threshold

molecular target: T10, RAPGEF6, Q8TEU7; assay: holdup assay; set-up: key: below the threshold = too weak to quantify, mostly under pKd 3.1 to 4; details: plain residues with an end cap or a label only (N-terminal biotin on a linker: ado-ado)
T10 sequence (Q8TEU7 525-625, limits assumed, looked up): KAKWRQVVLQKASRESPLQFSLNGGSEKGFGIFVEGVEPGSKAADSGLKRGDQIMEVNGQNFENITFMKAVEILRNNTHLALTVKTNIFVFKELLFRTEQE

Binder	pKd
B1	below the threshold
B2	below the threshold
B3	below the threshold
B4	below the threshold

molecular target: T11, SNTB1, Q13884; assay: holdup assay; set-up: key: below the threshold = too weak to quantify, mostly under pKd 3.1 to 4; details: plain residues with an end cap or a label only (N-terminal biotin on a linker: ado-ado)
T11 sequence (Q13884 107-205, limits assumed, looked up): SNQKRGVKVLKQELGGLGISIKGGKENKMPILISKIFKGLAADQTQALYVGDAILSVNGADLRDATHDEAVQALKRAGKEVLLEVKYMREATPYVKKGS

Binder	pKd
B1	below the threshold
B2	below the threshold
B3	4.52
B4	below the threshold

molecular target: T12, SNTG1, Q9NSN8; assay: holdup assay; set-up: key: below the threshold = too weak to quantify, mostly under pKd 3.1 to 4; details: plain residues with an end cap or a label only (N-terminal biotin on a linker: ado-ado)
T12 sequence (Q9NSN8 52-150, limits assumed, looked up): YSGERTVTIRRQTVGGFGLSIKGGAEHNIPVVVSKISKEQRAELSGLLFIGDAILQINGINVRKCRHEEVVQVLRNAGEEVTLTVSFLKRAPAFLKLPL

Binder	pKd
B1	below the threshold
B2	below the threshold
B3	below the threshold
B4	below the threshold

molecular target: T13, SYNJ2BP, P57105; assay: holdup assay; set-up: key: below the threshold = too weak to quantify, mostly under pKd 3.1 to 4; details: plain residues with an end cap or a label only (N-terminal biotin on a linker: ado-ado)
T13 sequence (P57105 8-110, limits assumed, looked up): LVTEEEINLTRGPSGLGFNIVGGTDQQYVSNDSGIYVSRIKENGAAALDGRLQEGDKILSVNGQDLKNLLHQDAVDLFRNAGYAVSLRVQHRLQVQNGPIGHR

Binder	pKd
B1	below the threshold
B3	below the threshold
B4	below the threshold

molecular target: TJP1_3, Q07157; assay: holdup assay; set-up: key: below the threshold = too weak to quantify, mostly under pKd 3.1 to 4; details: plain residues with an end cap or a label only (N-terminal biotin on a linker: ado-ado)
Sequence (Q07157 416-512): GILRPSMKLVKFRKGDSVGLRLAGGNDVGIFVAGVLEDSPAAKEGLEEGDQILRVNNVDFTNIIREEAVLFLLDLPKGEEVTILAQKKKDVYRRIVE

Binder	pKd
B1	below the threshold
B2	below the threshold
B3	below the threshold
